Assay results reported in paper PMC4888784.

Molecular target: PIN1 (UniProt Q13526)
Test: His-tagged peptide binding to GST-PIN1
Conditions: reference: nonphosphorylated S203/P204 peptide; sites S203

## PGK1 (phosphoglycerate kinase 1) oligopeptide containing S203/P204, borders not given (from UniProt P00558) pS203/P204 peptide
  binding against the reference: stronger
